The target in the assay is Tetanus neurotoxin (TeNT) (Clostridium tetani strain Y-IV-3 (WS …, UniProt P04958)). Put plainly: SPR.
Chain of Tetanus neurotoxin (TeNT) (Clostridium tetani strain Y-IV-3 (P04958 1-457, chain 1 of 2): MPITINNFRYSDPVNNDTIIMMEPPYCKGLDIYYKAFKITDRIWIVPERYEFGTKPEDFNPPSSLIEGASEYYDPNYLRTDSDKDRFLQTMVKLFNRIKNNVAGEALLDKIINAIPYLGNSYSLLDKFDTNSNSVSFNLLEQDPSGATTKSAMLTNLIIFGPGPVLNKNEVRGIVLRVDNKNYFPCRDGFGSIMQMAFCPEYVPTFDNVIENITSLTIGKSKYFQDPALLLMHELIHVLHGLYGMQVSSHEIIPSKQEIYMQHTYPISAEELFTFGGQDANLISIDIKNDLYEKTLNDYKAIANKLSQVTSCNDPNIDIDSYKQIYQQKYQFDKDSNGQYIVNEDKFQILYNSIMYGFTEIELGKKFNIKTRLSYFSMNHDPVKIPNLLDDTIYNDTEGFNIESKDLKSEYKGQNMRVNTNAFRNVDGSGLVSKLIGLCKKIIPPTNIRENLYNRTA
Chain of Tetanus neurotoxin (TeNT) (Clostridium tetani strain Y-IV-3 (P04958 458-1315, chain 2 of 2): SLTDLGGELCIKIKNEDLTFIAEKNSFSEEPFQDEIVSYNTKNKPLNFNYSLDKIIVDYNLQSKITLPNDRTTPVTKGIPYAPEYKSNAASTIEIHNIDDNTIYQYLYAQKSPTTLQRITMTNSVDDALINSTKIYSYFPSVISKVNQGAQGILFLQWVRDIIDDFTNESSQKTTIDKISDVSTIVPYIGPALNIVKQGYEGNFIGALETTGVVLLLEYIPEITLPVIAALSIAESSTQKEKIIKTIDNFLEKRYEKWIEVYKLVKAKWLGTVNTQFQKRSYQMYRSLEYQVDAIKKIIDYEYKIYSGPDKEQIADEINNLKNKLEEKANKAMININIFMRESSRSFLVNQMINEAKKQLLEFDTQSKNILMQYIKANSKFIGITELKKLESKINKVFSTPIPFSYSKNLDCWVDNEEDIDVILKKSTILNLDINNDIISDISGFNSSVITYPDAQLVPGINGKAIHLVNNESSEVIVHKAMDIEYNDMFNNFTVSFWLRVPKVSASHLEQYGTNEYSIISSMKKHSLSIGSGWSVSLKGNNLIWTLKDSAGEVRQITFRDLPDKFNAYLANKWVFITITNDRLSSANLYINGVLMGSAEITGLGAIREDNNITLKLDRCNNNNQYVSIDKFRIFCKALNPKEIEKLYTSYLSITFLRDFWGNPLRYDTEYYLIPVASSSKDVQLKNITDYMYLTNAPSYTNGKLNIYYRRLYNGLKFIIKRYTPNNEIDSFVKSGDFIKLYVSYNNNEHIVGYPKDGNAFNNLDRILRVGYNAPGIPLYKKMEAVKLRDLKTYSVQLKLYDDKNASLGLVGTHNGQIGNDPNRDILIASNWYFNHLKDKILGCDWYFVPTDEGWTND

B1: TT110-Fab (Fab, V domains shown)
VH: QVQLMQSGAEVQKPGASVKVSCQASGFTLNNYYIHWLRQAPGQGFEWMGIFNPSSGTRTYAQKFQGRISMTADASTTTLYMELSGLTSEDAGVYFCARIGGSTYGRLMTYYFDHWGQGTVVAVSS
VL: VLTQGPVTLSVSPGGRGTLSCRASRSISTTLAWYQQKPGQAPRLLIYGASTRATGIPARFTGSGSGTEFTLTISSLQSEDFAVYYCQQYNDWPVTFGQGTQVEVK
B1: the affinity, expressed as Kd, was 3 nM.

B2: TT104-Fab (Fab, V domains shown)
VH: QLQLQESGPGLVRPSETLSLTCSVSDDSMGSSTYYWAWIRQPPGKGLEWIGNVYYNGVTYYNSSLESRLTLSIDPSKNQFSLILSSVTAADTAVYYCARQADNWFDPWGQGTLVTVSS
VL: IMMTQSPATLSVSPGERATLSCRASQSVGSDLAWYQQKPGQAPRLLIYGASYRATGIPARFSGGGSGTEFTLTISSMQSEDFAVYYCQQYYNWPPYTFGQGTKVEIK
B2 showed a Kd of 0.0067 nM.

These data come from article doi:10.1101/2021.05.24.445390 (bioRxiv, 2021).
